# B1: RA435 (nucleic acid)
# DNA: GCGCGTCCTGGATTCGCGGAAACGCGTACATCCAGCTGACGAGTCCCAAACGGAATACCAGCATCGTCTTGATGCCCTTGGAAGTCCGTAGGACGAAACGCGC
# modifications: expressed or natural sequence
# B2: RA422 (nucleic acid)
# DNA: GCGCGTCCTGGATTCGCGGAAACGCGTACATCCAGCTGACGAGTCCCAAATAGGACGACGGAATACCAGCATCGTCTTGATGCCCTTGGAAGTCCGAACGCGC
# modifications: expressed or natural sequence
# B3: RA425 (nucleic acid)
# DNA: GCGCGTCCTGGATTCGCGGAAACGCGTACAGGAATACCAGCATCGTCTTGATGCCCTTGGAAGTCCTCCAGCTGACGAGTCCCAAATAGGACGAAACGCGC
# modifications: expressed or natural sequence
# B4: RA423 (nucleic acid)
# DNA: GCGCGTCCTGGATTCGCGGAAACGCGTACATCCAGCTGACGAGCCGGAATACCAGCATCGTCTTGATGCCCTTGGAAGTCCGGTCCCAAATAGGACGAAACGCGC
# modifications: expressed or natural sequence
# B5: RA412 (nucleic acid)
# DNA: GCGCGTCCTGGATTCGCGGAGTGATACCAGCATCGTCTTGATGCCCTTGGCAGCACTAAACGCGTACATCCAGCTGACGAGTCCCAAATAGGACGAAACGCGC
# modifications: expressed or natural sequence
# B6: RA428 (nucleic acid)
# DNA: GCGCGTCCTGGATTCGCGGAAACGCGTACATCCAGCTGACGAGTCCGAGAATACCAGCATCGTCTTGATGCCCTTGGAAGTCTCCAAATAGGACGAAACGCGC
# modifications: expressed or natural sequence
# B7: RA416 (nucleic acid)
# DNA: GCGCGTCCTGGACGGAATACCAGCATCGTCTTGATGCCCTTGGAAGTCCGTTCGCGGAAACGCGTACATCCAGCTGACGAGTCCCAAATAGGACGAAACGCGC
# modifications: expressed or natural sequence
# B8: RA419 (nucleic acid)
# DNA: GCGCGTCCTGGATTCGCGGAAACGCGTACATCCAGCTGACGAGTCCCAAATAGGACGAAAGAATACCAGCATCGTCTTGATGCCCTTGGAAGTCTACGCGC
# modifications: expressed or natural sequence
# B9: RA430 (nucleic acid)
# DNA: GCGCGTCCTGGATTCGCGGAAACGCGTACATCCAGCTGAGAGAATACCAGCATCGTCTTGATGCCCTTGGAAGTCTCCGAGTCCCAAATAGGACGAAACGCGC
# modifications: expressed or natural sequence
# B10: RA421 (nucleic acid)
# DNA: GCGCGTCCTGGATTCGCGGAAAGAGAATACCAGCATCGTCTTGATGCCCTTGGAAGTCTCCGCGTACATCCAGCTGACGAGTCCCAAATAGGACGAAACGCGC
# modifications: expressed or natural sequence
# B11: RA414 (nucleic acid)
# DNA: GCGCGTCCTGGATTCGCGGAAACGCGTACATCCAGCTGACGAGTCCCCCGGAATACCAGCATCGTCTTGATGCCCTTGGAAGTCCGGAAATAGGACGAAACGCGC
# modifications: expressed or natural sequence
# B12: RA433 (nucleic acid)
# DNA: GCGCGTCCTGGATTCGCGGAAACGCGTACATCCAGCTGACGAGTCCCAAATAGGAAGTGATACCAGCATCGTCTTGATGCCCTTGGCAGCACTCGAAACGCGC
# modifications: expressed or natural sequence
# B13: RA437 (nucleic acid)
# DNA: GCGCGTCCTGGATTCGCGGAAACGCGTACATCCAGCTGACGAGTCCCAAGAATACCAGCATCGTCTTGATGCCCTTGGAAGTCTAATAGGACGAAACGCGC
# modifications: expressed or natural sequence
# B14: RA420 (nucleic acid)
# DNA: GCGCGTCCTGGATTCGCGGAAACGGAGAATACCAGCATCGTCTTGATGCCCTTGGAAGTCTCCGTACATCCAGCTGACGAGTCCCAAATAGGACGAAACGCGC
# modifications: expressed or natural sequence
# B15: RA424 (nucleic acid)
# DNA: GCGCGTCCTGGATTCGCGGAAACGCGTACATCCAGCTGCGAGAATACCAGCATCGTCTTGATGCCCTTGGAAGTCTCGACGAGTCCCAAATAGGACGAAACGCGC
# modifications: expressed or natural sequence
# B16: RA431 (nucleic acid)
# DNA: GCGCGTCCTGGATTCGCGGAAACGCGTACATCCACGGAATACCAGCATCGTCTTGATGCCCTTGGAAGTCCGGCTGACGAGTCCCAAATAGGACGAAACGCGC
# modifications: expressed or natural sequence
# B17: RA417 (nucleic acid)
# DNA: GCGCGTCCTGGATTCGCGGAAACGCGTACATCCAGCTGACGAGTCCCAAATCGGAATACCAGCATCGTCTTGATGCCCTTGGAAGTCCGAGGACGAAACGCGC
# modifications: expressed or natural sequence
# B18: RA426 (nucleic acid)
# DNA: GCGCGTCCTGGATTCGCGGAAACGCGTACATCCAGCTGACGAGTCCCAAATAGGACGCCGGAATACCAGCATCGTCTTGATGCCCTTGGAAGTCCGGAAACGCGC
# modifications: expressed or natural sequence
# B19: RA436 (nucleic acid)
# DNA: GCGCGTCCTGGATTCGCGGAAACGCGTACATCCAGCGGAATACCAGCATCGTCTTGATGCCCTTGGAAGTCCGCTGACGAGTCCCAAATAGGACGAAACGCGC
# modifications: expressed or natural sequence
# B20: RA427 (nucleic acid)
# DNA: GCGCGTCCTGCCGGAATACCAGCATCGTCTTGATGCCCTTGGAAGTCCGGGATTCGCGGAAACGCGTACATCCAGCTGACGAGTCCCAAATAGGACGAAACGCGC
# modifications: expressed or natural sequence
# B21: RA415 (nucleic acid)
# DNA: GCGCGTCCTGGATTCGCGGACCGGAATACCAGCATCGTCTTGATGCCCTTGGAAGTCCGGAACGCGTACATCCAGCTGACGAGTCCCAAATAGGACGAAACGCGC
# modifications: expressed or natural sequence
# B22: RA413 (nucleic acid)
# DNA: GCGCGTCCTGGATTCGCGGAAACGCGTAGAATACCAGCATCGTCTTGATGCCCTTGGAAGTCTACATCCAGCTGACGAGTCCCAAATAGGACGAAACGCGC
# modifications: expressed or natural sequence
# B23: RA418 (nucleic acid)
# DNA: GCGCGTCCTGGATTCGCGGAAACGCGTACATCGAGAATACCAGCATCGTCTTGATGCCCTTGGAAGTCTCGCCAGCTGACGAGTCCCAAATAGGACGAAACGCGC
# modifications: expressed or natural sequence
# B24: RA438 (nucleic acid)
# DNA: GCGCGTCCTGGATTCGCGGAAACGCGTACATCCAGCTGACGAGTCCCAAATAGGACGCGGAATACCAGCATCGTCTTGATGCCCTTGGAAGTCCGAAACGCGC
# modifications: expressed or natural sequence
# B25: RA432 (nucleic acid)
# DNA: GCGCGTCCTGGATTCGCGGAAACGCGTACATCCAGCTGACGAGTCCCACCGGAATACCAGCATCGTCTTGATGCCCTTGGAAGTCCGGAATAGGACGAAACGCGC
# modifications: expressed or natural sequence
# B26: RA429 (nucleic acid)
# DNA: GCGCGTCCTGGATTCGCGGGGAATACCAGCATCGTCTTGATGCCCTTGGAAGTCCAAACGCGTACATCCAGCTGACGAGTCCCAAATAGGACGAAACGCGC
# modifications: expressed or natural sequence
# B27: RA434 (nucleic acid)
# DNA: GCGCGTCCAGAATACCAGCATCGTCTTGATGCCCTTGGAAGTCTTGGATTCGCGGAAACGCGTACATCCAGCTGACGAGTCCCAAATAGGACGAAACGCGC
# modifications: expressed or natural sequence
# B28: RA041 (nucleic acid)
# DNA: GCGCGTCCTGGATTCGCGGAAACGCGAGTGATACCAGCATCGTCTTGATGCCCTTGGCAGCACTTACATCCAGCTGACGAGTCCCAAATAGGACGAAACGCGC
# modifications: expressed or natural sequence
# B29: RA042 (nucleic acid)
# DNA: GCGCGTCCTGGATTCGCGGAAACGCGTACATCCAAGAATACCAGCATCGTCTTGATGCCCTTGGAAGTCTGCTGACGAGTCCCAAATAGGACGAAACGCGC
# modifications: expressed or natural sequence
# System: Renilla luciferase RNA
# Assay: Barcoded aptazyme variant library screen: un-cleaved Renilla luciferase RNA by barcode read counts, HEK293-T cells
# Format: cell-based
# Settings: un-cleaved Renilla luciferase RNA by barcode read counts; with 1 mM theophylline (ON) over without theophylline (OFF); HEK293-T cells; triplicate
# In short: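 Barcode sequencing of cDNA versus DNA, normalized per aptazyme, gave the un-cleaved Renilla luciferase RNA fraction and fold-change with versus without theophylline (triplicates). Library: T3H48 ribozyme with one of seven theophylline aptamer variants inserted at each position, placed in the Renilla 3′ UTR of a dual-luciferase vector.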
row,Molecule,Fold change in RNA expression between the ON state and the OFF state
1,B1,0.6
2,B2,0.6
3,B3,0.6
4,B4,0.6
5,B5,0.7
6,B6,0.6
7,B7,0.7
8,B8,0.7
9,B9,0.6
10,B10,0.6
11,B11,0.7
12,B12,0.6
13,B13,0.6
14,B14,0.6
15,B15,0.6
16,B16,0.6
17,B17,0.7
18,B18,0.6
19,B19,0.6
20,B20,0.6
21,B21,0.7
22,B22,0.7
23,B23,0.7
24,B24,0.6
25,B25,0.6
26,B26,0.6
27,B27,0.6

# Same assay, conditions: un-cleaved Renilla luciferase RNA, HEK293-T cells cultured with 1 mM theophylline (ON) over without theophylline (OFF); barcode read counts, triplicate
row,Molecule,Fold change in RNA expression between the ON state and the OFF state [fold]
1,B28,2.1
2,B29,2.1

# — US20260167959A1, “APTAZYME-BASED REGULATABLE GENE EXPRESSION SYSTEMS” (REJUVENATE BIO INC, priority 2022, published 2026)
